Source: patent publication US20230257472A1

Target: His-tagged CD70 protein extracellular domain (His-TNC-CD70) (human)
Assay: phage ELISA, 2 ug/mL His-TNC-CD70 coated, anti-M13-HRP

His-tagged CD70 protein extracellular domain (His-TNC-CD70) (human), sequence (chain, as listed by the source limits assumed): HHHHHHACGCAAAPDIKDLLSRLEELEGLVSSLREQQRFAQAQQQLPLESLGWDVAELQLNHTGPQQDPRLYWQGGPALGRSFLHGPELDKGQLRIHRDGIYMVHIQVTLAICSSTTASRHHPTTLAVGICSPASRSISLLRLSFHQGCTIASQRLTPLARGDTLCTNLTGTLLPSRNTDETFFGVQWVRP

B1: B1 phage display single-chain antibody (scFv, part only; not given: scFv linker, phage partner, tag, V domains shown, not shown: another chain or arm of the molecule; large carriers; small tags and cut ends)
VH: QVQMQQSGAELVKPGASVMMSCKASGYTFTTYNIHWIKQTPGQGLEWIGDIYPGNGDASYNQKFRDRATLTADRSSSTAYLQLSSLTSEDSAIYYCATFSRFDGWFAYWGQGTLVTVSA
VL: DIVMSQSPASLAVSLGQRATISCRASRSVSTSGYSYMHWYQQKPGQPPKLLIYLASNLESGVPARFSGSGSGTNFTLNIHPVEEEDAATYYCQHSRELPYTFGGGTKLEIK
Reading at OD450 nm of microplate reader: 1.16 OD450

B2: B7 phage display single-chain antibody (scFv, part only; not given: linker; VH end may be cut, part only)
scFv, part: QIQLVQSGPELKKPGETVKISCKTSGYTFTNYGMNWVRQAPGKGLKWMGWINTYTGEPTYADDFKGRFAFSLETSAGTAYLQINNLENEDTATYFCARGDSFTTEILRNWYFDVWGAGTTDIQMTQTPASLSASVGETVTITCGASENIYGALNWYQRKQGKSPQLLIYGATNLADGMSSRFSGSGSGRQYSLKISSLHPDDVATYYCQNVLSTPWTFGGGTKLEMK
Reading at OD450 nm of microplate reader: 1.97 OD450

B3: F4 phage display single-chain antibody (scFv, part only; not given: scFv linker, phage partner, tag, V domains shown, not shown: another chain or arm of the molecule; large carriers; small tags and cut ends)
VH: QVQLKQSGAELVKPGASVKMSCKASGDTFPRYNMHWLKQTPGQGLEWIGAIFPGNGETSYNQNFKGKATLTADKSSSTAYMQLNSLTSEDSAVYYCARNSYYDYAWFTYWGQGTLVTVSA
VL: DIVMTQSPASLDVSLGQRATISCRASKSVSSSGYSFMHWYQQKPGQPPKLLISLASNLESGVPARFSGSGSGTDFTLTIYPVEEEDAATYYCQHSREFPPTFGSGTKLEIK
Reading at OD450 nm of microplate reader: 1.09 OD450
